This is an account of results in paper PMC7058304 (PLoS ONE, 2020).

Conditions in all cases: both partners purified
The target of assay [1] is T1, Recombinant purified human PD-1 protein, residues Leu25-Thr168, with a C-terminal 6-His tag (human, UniProt Q15116).
T1 construct: programmed cell death protein 1 (PD-1), human, residues Leu25-Thr168; monomer; the results call it wild-type or full length PD-1 against the P35-Q167 fragment; also called PD-1-His; PD-1 His-tagged monomer; source: bought: R&D Systems; not shown: His6, C-terminal, kept
As to the kind of experiment: SPR; Biacore 8K, flat chips (average of C1 and CMD-P); mAbs captured on goat anti-human IgG Fc; PD-1 His-tagged monomer analyte 0.4-100 nM; 25 C; HBS-EP+ pH 7.4; 1:1 Langmuir fit with mass transport; apparent. (SPR reads the build-up and loss of mass on a sensor chip optically.)

In assay [2] the target is T1, Recombinant purified human PD-1 …. Description: SPR; Biacore 8K, 3D-hydrogel chips (average of CM5 and CMD-200M); mAbs captured on goat anti-human IgG Fc; PD-1 His-tagged monomer analyte 0.4-100 nM; 25 C; HBS-EP+ pH 7.4; 1:1 Langmuir fit with mass transport; apparent.
For assay [3], the target named is T2, biotinylated His-tagged PD-1 (Homo sapiens, UniProt Q15116, biotin).
T2 construct: PD-1, His-tagged, biotinylated, used in the MSD experiments; probably the R&D Systems Leu25-Thr168 protein after biotinylation
Description: MSD solution equilibrium titration; 100 pM biotinylated His-tagged PD-1 titrated with mAb (top 100, 50 or 10 nM binding sites), 18 h at room temperature; free antigen captured on mAb-coated MSD plates; relative KD.

The target in assay [4] is T1, Recombinant purified human PD-1 …. Description: SPR; Carterra LSA, CMD-P (flat) chip; mAbs captured on goat anti-human IgG Fc in a 384-spot array; PD-1-His analyte 0.5-1000 nM, 5 min association, 20 min dissociation; HBS-ET + 0.5 mg/ml BSA; 1:1 Langmuir fit; mean of spots; apparent.
Assay [5] has the same target. Description: KinExA equilibrium; fixed mAb orientation: PD-1-His monomer titrated (0.1 pM-1.2 uM) into fixed mAb, equilibrated up to 64 h; free mAb captured on beads coated with Fc-fused PD-1; about 23 C; PBS pH 7.4 + 0.05% azide + 0.01% BSA; N-curve analysis; apparent. (A kinetic exclusion assay measures how much of one partner remains free in solution.)
In assay [6] the target is T3, Recombinant purified human PD-1 protein, residues Leu25-Thr168, with a C-terminal 6-His tag (Homo sapiens, UniProt Q15116).
T3 construct: human PD-1 (programmed cell death protein 1), residues Leu25-Thr168; monomer; used as analyte in SPR and as titrant in KinExA; also called PD-1-His; PD-1-His monomer; source: bought: R&D Systems (catalog# 8986-PD, lot# DDJM0417041); not shown: His6, C-terminal, kept
As to the kind of experiment: KinExA; 'Kinetics, Direct' method, solution phase: mAb mixed with PD-1, free mAb probed repeatedly pre-equilibrium on PD-1-coupled PMMA beads, Alexa647 goat anti-human IgG detection; ka fitted (best fit, 95% CI), kd calculated from ka and KD.
T3 sequence (Q15116 25-168): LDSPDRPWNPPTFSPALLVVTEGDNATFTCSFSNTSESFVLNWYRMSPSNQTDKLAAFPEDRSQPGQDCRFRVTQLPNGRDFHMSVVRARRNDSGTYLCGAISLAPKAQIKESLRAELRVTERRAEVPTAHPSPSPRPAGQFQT

Assay [7] has as its target T3, Recombinant purified human PD-1 …. As to the kind of experiment: SPR; Carterra LSA, CMD-P (flat) chip; mAb captured by amine-coupled goat anti-human IgG Fc, PD-1-His as analyte 0.5-1000 nM, 5 min association, 20 min dissociation; run buffer with 0.5 mg/ml BSA; global 1:1 Langmuir fit; mean (stdev) of 8-12 spots per mAb; KD deduced from kd/ka; apparent.
Assay [8] addresses T4, Recombinant purified human PD-1 protein, residues Leu25-Thr168, with a C-terminal 6-His tag (Homo sapiens, UniProt Q15116).
T4 construct: programmed cell death protein 1 (PD-1), human, residues Leu25-Thr168; also called programmed cell death protein 1; PD-1-His monomer; source: bought: R&D Systems (catalog# 8986-PD, lot# DDJM0417041)
Description: SPR; Biacore 8K, CMD-P chip (flat); mAb captured on amine-coupled goat anti-human IgG Fc, PD-1-His monomer as analyte (100 nM top, 3-fold dilutions), 1200 s dissociation; 25 C, HBS-EP+ pH 7.4; 1:1 Langmuir fit, apparent constants.
T4 sequence (Q15116 25-168): as above

Assay [9] addresses T4, Recombinant purified human PD-1 …. Description: SPR; Biacore 8K, CM5 chip (3D-hydrogel); mAb captured on amine-coupled goat anti-human IgG Fc, PD-1-His monomer as analyte (100 nM top, 3-fold dilutions), 1200 s dissociation; 25 C, HBS-EP+ pH 7.4; 1:1 Langmuir fit, apparent constants.
Assay [10] shares this target. Description: SPR; Biacore 8K, CMD-200M chip (3D-hydrogel); mAb captured on amine-coupled goat anti-human IgG Fc, PD-1-His monomer as analyte (100 nM top, 3-fold dilutions), 1200 s dissociation; 25 C, HBS-EP+ pH 7.4; 1:1 Langmuir fit, apparent constants.
Target sequence in this assay (Q15116 25-168): as above
Assay [11] has the same target. As to the kind of experiment: SPR; Biacore 8K, C1 chip (flat); mAb captured on amine-coupled goat anti-human IgG Fc, PD-1-His monomer as analyte (100 nM top, 3-fold dilutions), 1200 s dissociation; 25 C, HBS-EP+ pH 7.4; 1:1 Langmuir fit, apparent constants; 8 mAbs measured in two independent experiments.
Target sequence in this assay (Q15116 25-168): as above
Assay [12] has the same target. Described as above. This is another data set of the same source.
Target sequence in this assay (Q15116 25-168): as above

T2 sequence (Q15116 whole entry, looked up, tested part not stated): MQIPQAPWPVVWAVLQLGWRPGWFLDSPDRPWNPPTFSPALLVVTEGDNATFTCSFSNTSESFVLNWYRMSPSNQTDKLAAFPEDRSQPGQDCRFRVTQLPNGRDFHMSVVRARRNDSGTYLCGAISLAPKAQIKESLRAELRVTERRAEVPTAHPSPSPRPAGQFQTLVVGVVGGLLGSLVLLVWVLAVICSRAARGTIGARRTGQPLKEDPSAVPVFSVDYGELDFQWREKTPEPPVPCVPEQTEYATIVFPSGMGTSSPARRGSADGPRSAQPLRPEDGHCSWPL
T1 sequence (Q15116 25-168): as the sequence (Q15116 25-168) above

B1: mAb23 (analog of cemiplimab) (antibody, V domains shown)
VH: EVQLLESGGVLVQPGGSLRLSCAASGFTFSNFGMTWVRQAPGKGLEWVSGISGGGRDTYFADSVKGRFTISRDNSKNTLYLQMNSLKGEDTAVYYCVKWGNIYFDYWGQGTLVTVSS
VL: DIQMTQSPSSLSASVGDSITITCRASLSINTFLNWYQQKPGKAPNLLIYAASSLHGGVPSRFSGSGSGTDFTLTIRTLQPEDFATYYCQQSSNTPFTFGPGTVVDFR
notes: VH; IgG4 heavy-chain constant region with stabilizing 226CPPC hinge; VL; IgG4 analog; source: HEK293 suspension cells, cotransfected, purified (Protein A)
The term koff denotes the rate constant with which the complex falls apart. A word on the kon: it is the second-order rate constant of association. For B1, the Kd in assay [1] was determined as 0.82 nM; in assay [2], 1.9 nM; in assay [3], 0.13 nM; in assay [4] it was 1.5 nM; in assay [5], 0.22 nM. For the same molecule, in [4], the koff was 0.00028 s⁻¹. In addition, the kon in [4] is 190000 M⁻¹ s⁻¹.

B2: mAb23 (analog of cemiplimab) (antibody, V domains shown)
VH: EVQLLESGGVLVQPGGSLRLSCAASGFTFSNFGMTWVRQAPGKGLEWVSGISGGGRDTYFADSVKGRFTISRDNSKNTLYLQMNSLKGEDTAVYYCVKWGNIYFDYWGQGTLVTVSS
VL: DIQMTQSPSSLSASVGDSITITCRASLSINTFLNWYQQKPGKAPNLLIYAASSLHGGVPSRFSGSGSGTDFTLTIRTLQPEDFATYYCQQSSNTPFTFGPGTVVDFR
notes: VH; IgG4 heavy-chain constant region with a stabilizing 226CPPC hinge modification; IgG4; isotype-matched analog made from published variable regions, not the clinical molecule; source: HEK293 suspension cells, cotransfected, purified (Protein A)
For the molecule B2, in assay [6], the koff is 0.00011 s⁻¹ and the kon was 502000 M⁻¹ s⁻¹. For the same molecule, in [7], the Kd was 1.52 nM, the dissociation rate constant (koff) came out at 0.000297 s⁻¹ and the kon came out at 195000 M⁻¹ s⁻¹.

B3: mAb04 (antibody, V domains shown)
VH: QVQLVQSGAEVKKPGASVKVSCKASGYSFTSYWMNWVRQAPGQGLEWIGVIHPSDSETWLDQKFKDRVTITVDKSTSTAYMELSSLRSEDTAVYYCAREHYGTSPFAYWGQGTLVTVSS
VL: EIVLTQSPATLSLSPGERATLSCRASESVDNYGMSFMNWFQQKPGQPPKLLIHAASNQGSGVPSRFSGSGSGTDFTLTISSLEPEDFAVYFCQQSKEVPYTFGGGTKVEIK
notes: IgG4; also called analog of retifanlimab; retifan; source: HEK293 suspension cells, cotransfected, purified (Protein A)
B3: the Kd in assay [8] came out at 0.387 nM; in [9], 0.717 nM; in [10] it was 0.582 nM; in assay [11], 0.297 nM; in assay [12], 0.307 nM. The koff is 0.000235 s⁻¹ in [8]; 0.000235 s⁻¹ in assay [9]; 0.000253 s⁻¹ in assay [10]; 0.000277 s⁻¹ in assay [11]; 0.000269 s⁻¹ in assay [12]. The kon in assay [8] was 608000 M⁻¹ s⁻¹; in assay [9], 328000 M⁻¹ s⁻¹; in assay [10], 435000 M⁻¹ s⁻¹; in assay [11], 933000 M⁻¹ s⁻¹; in assay [12], 877000 M⁻¹ s⁻¹.

B4: mAb16 (analog of dostarlimab) (antibody, V domains shown)
VH: EVQLLESGGGLVQPGGSLRLSCAASGFTFSSYDMSWVRQAPGKGLEWVSTISGGGSYTYYQDSVKGRFTISRDNSKNTLYLQMNSLRAEDTAVYYCASPYYAMDYWGQGTTVTVSS
VL: DIQLTQSPSFLSAYVGDRVTITCKASQDVGTAVAWYQQKPGKAPKLLIYWASTLHTGVPSRFSGSGSGTEFTLTISSLQPEDFATYYCQHYSSYPWTFGQGTKLEIK
notes: as for B1
As to B4, the Kd in assay [1] came out at 0.87 nM; in assay [2], 1.7 nM; in [3], 0.18 nM; in assay [4], 1.6 nM; in assay [5] it was 0.2 nM. Moreover, in [4], the koff was found to be 0.00039 s⁻¹. The kon in assay [4] came to 240000 M⁻¹ s⁻¹.

B5: mAb16 (analog of dostarlimab) (antibody, V domains shown)
VH: EVQLLESGGGLVQPGGSLRLSCAASGFTFSSYDMSWVRQAPGKGLEWVSTISGGGSYTYYQDSVKGRFTISRDNSKNTLYLQMNSLRAEDTAVYYCASPYYAMDYWGQGTTVTVSS
VL: DIQLTQSPSFLSAYVGDRVTITCKASQDVGTAVAWYQQKPGKAPKLLIYWASTLHTGVPSRFSGSGSGTEFTLTISSLQPEDFATYYCQHYSSYPWTFGQGTKLEIK
notes: as for B2
As to B5, in assay [6], the dissociation rate constant (koff) is 0.00013 s⁻¹ and the kon is 639000 M⁻¹ s⁻¹. Moreover, in [7], the Kd amounted to 1.67 nM, the koff stood at 0.000421 s⁻¹ and the kon is 252000 M⁻¹ s⁻¹.

B6: mAb03 (analog of tislelizumab) (antibody, V domains shown)
VH: QVQLQESGPGLVKPSETLSLTCTVSGFSLTSYGVHWIRQPPGKGLEWIGVIYADGSTNYNPSLKSRVTISKDTSKNQVSLKLSSVTAADTAVYYCARAYGNYWYIDVWGQGTTVTVSS
VL: DIVMTQSPDSLAVSLGERATINCKSSESVSNDVAWYQQKPGQPPKLLINYAFHRFTGVPDRFSGSGYGTDFTLTISSLQAEDVAVYYCHQAYSSPYTFGQGTKLEIK
notes: as for B1
For B6, the Kd in [1] is 0.13 nM; in assay [2], 0.26 nM; in assay [3] it was 0.024 nM; in [4], less than 0.099 nM; in assay [5] it was 0.038 nM. Further, the off-rate (koff) in assay [4] is less than 4.3e-05 s⁻¹. For the same molecule, the kon in assay [4] came to 430000 M⁻¹ s⁻¹.

B7: mAb03 (analog of tislelizumab) (antibody, V domains shown)
VH: QVQLQESGPGLVKPSETLSLTCTVSGFSLTSYGVHWIRQPPGKGLEWIGVIYADGSTNYNPSLKSRVTISKDTSKNQVSLKLSSVTAADTAVYYCARAYGNYWYIDVWGQGTTVTVSS
VL: DIVMTQSPDSLAVSLGERATINCKSSESVSNDVAWYQQKPGQPPKLLINYAFHRFTGVPDRFSGSGYGTDFTLTISSLQAEDVAVYYCHQAYSSPYTFGQGTKLEIK
notes: as for B2
Turning to B7, in [6], the koff is 6.82e-05 s⁻¹ and the kon is 1.8e+06 M⁻¹ s⁻¹. Further, in assay [7], the Kd was less than 0.1 nM, the koff was less than 4.27e-05 s⁻¹ and the kon came out at 432000 M⁻¹ s⁻¹.
